Laboratory results reported in patent US20160376333A1 (University of Washington, published 2016).
Changes are numbered by the printed parent chain. In names and notes the source's numbering stands.

Experiments:
[1] = target: T1, human Mcl-1 a.a. 172-327 with C-terminal avi-6his tag (human); test: yeast surface display titration (apparent KD)
T1 chain: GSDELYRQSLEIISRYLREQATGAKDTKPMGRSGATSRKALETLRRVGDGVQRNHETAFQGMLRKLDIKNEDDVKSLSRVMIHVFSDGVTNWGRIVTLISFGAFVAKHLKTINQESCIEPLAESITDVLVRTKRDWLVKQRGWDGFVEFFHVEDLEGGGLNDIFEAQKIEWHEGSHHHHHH

[2] = target: T2, human Bfl-1 a.a. 1-153 (C4S) with C-terminal avi-6his tag (human); test: yeast surface display titration (apparent KD)
T2 construct: also called A1/Bfl-1
T2 chain: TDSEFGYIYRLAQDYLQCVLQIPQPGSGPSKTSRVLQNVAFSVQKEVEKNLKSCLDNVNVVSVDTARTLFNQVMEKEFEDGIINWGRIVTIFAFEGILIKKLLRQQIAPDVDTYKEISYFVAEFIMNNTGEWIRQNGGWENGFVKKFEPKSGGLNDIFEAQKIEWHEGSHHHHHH

[3] = target: T3, Epstein-Barr virus BHRF1 a.a. 1-161 with C-terminal avi-6his tag (Epstein-Barr virus); test: effect of the mutation on specificity (KD(BHRF1)/KD(Mcl-1) ratio): change in binding energy for BHRF1 minus that for Mcl-1, relative to BbpD04; assay not named on the sheet
T3 construct: also called EBV BHRF1; BHRF1-biotin
T3 chain: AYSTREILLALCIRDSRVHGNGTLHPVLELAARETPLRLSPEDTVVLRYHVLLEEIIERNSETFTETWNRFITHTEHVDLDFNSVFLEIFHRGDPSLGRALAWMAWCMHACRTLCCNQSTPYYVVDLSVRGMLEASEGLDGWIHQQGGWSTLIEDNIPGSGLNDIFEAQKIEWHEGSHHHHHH

[4] = target: T4, human Bcl-2 a.a. 1-207 with C-terminal avi-6his tag (human, UniProt P10415 2-207); test: yeast surface display titration (apparent KD)
[5] = target: T5, human Bcl-w a.a. 1-182 with C-terminal avi-6his tag (human, UniProt Q92843 1-182); test: yeast surface display titration (apparent KD)
T5 construct: range 1-182; also called BCL2L2
T5 sequence: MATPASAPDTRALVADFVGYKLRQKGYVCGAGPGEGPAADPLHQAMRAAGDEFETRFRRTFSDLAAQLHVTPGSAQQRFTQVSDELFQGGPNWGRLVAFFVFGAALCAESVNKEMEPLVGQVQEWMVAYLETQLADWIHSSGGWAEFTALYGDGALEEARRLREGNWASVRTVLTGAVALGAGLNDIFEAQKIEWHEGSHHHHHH

[6] = target: T6, human Bcl-XL a.a. 1-205 with C-terminal avi-6his tag (human, UniProt Q07817 2-206); test: yeast surface display titration (apparent KD)
T6 construct: also called BCL2L1

[7] = target: T4, human Bcl-2 a.a. 1-207 with C-terminal …; test: yeast surface display titration; apparent binding constant (mean ± SE, n = 3-6)
[8] = target: T5, human Bcl-w a.a. 1-182 with C-terminal …; test: as above
[9] = target: T1, human Mcl-1 a.a. 172-327 with …; test: as above
[10] = target: T2, human Bfl-1 a.a. 1-153 (C4S) with …; test: as above
[11] = target: T6, human Bcl-XL a.a. 1-205 with C-terminal …; test: as above
[12] = target: T6, human Bcl-XL a.a. 1-205 with C-terminal …; test: ratio of the KD of the next tightest BCL2 protein to the KD of the target, BLI
[13] = target: T4, human Bcl-2 a.a. 1-207 with C-terminal …; test: BLI, biotinylated target on streptavidin sensor, range of analyte concentrations
[14] = target: T5, human Bcl-w a.a. 1-182 with C-terminal …; test: as above
[15] = target: T6, human Bcl-XL a.a. 1-205 with C-terminal …; test: as above
[16] = target: T1, human Mcl-1 a.a. 172-327 with …; test: as above
[17] = target: T7, human Bcl-B a.a. 11-175 with C-terminal avi-6his tag (human); test: as above
T7 construct: also called BCL2L10
T7 chain: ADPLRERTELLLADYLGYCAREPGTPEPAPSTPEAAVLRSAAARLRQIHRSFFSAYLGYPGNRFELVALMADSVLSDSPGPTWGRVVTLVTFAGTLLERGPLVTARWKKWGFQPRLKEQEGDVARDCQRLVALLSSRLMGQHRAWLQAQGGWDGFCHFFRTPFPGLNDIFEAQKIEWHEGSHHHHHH

[18] = target: T5, human Bcl-w a.a. 1-182 with C-terminal …; test: ratio of the KD of the next tightest BCL2 protein to the KD of the target, BLI
[19] = target: T2, human Bfl-1 a.a. 1-153 (C4S) with …; test: BLI, biotinylated target on streptavidin sensor, range of analyte concentrations
[20] = target: T4, human Bcl-2 a.a. 1-207 with C-terminal …; test: ratio of the KD of the next tightest BCL2 protein to the KD of the target, BLI
[21] = target: T4, human Bcl-2 a.a. 1-207 with C-terminal …; test: BLI at a single analyte concentration (50 nM, 600 s association, then buffer); biotinylated BCL2 protein on a streptavidin sensor
[22] = target: T5, human Bcl-w a.a. 1-182 with C-terminal …; test: as above
[23] = target: T1, human Mcl-1 a.a. 172-327 with …; test: as above
[24] = target: T6, human Bcl-XL a.a. 1-205 with C-terminal …; test: as above
[25] = target: T5, human Bcl-w a.a. 1-182 with C-terminal …; test: initial BLI screening (column 'Binds target?')

B1: BbpD04.3 (designed binder)
chain: ADWKKVLDKAKDIAENRVRELKQKLEEFYKEAMKLDLTQEMRRKLMLRWIAAMLMAIGDIFNAIRQAKQEADKLKKAGLVNSQQLDELKRRLEELKEEASRKARDYGREFQLKLEY
B1 showed a Kd [1] of 19 nM and a Kd [2] of 32 nM.

B2: E48R (designed binder)
designed protein: B1 chain with L21I, E31K, R65E, L79Q, Q84L, A103C, R104H
With B2 the “[..] ΔΔG BHRF1 - ΔΔG Mcl-1” value [3] was -0.762 kcal/mol.

B3: BbpD04.1 (designed binder)
chain: B1 chain with L21I, L79Q, Q84L, A103C, R104H
Binder B3 has a Kd [4] of 110 nM, a Kd [5] of 14 nM and a Kd [1] of 30 nM. It also gave a Kd [6] of 25 nM.

B4: BbpD04.2 C103V (designed binder)
designed protein: B1 chain with A103V
B4 showed a Kd [7] of 12.6 nM, a Kd [8] of 9.6 nM and a Kd [9] of 2.3 nM. For the same binder, the Kd [10] was 19 nM and the Kd [11] was 20 nM.

B5: XINDI (designed binder)
chain: ADPKKVLDKAKDRAENVVRKLKKELEELYKEARKLDLTQEMRDRIRRTAIAARFQAHGDIFHAIKHAKEEARKLKKAGLVNSQQLDELKRRLRELDEEAEQRAEKLGKEFRLKLEY
notes: also called X-ECM04; αBCLXL
Work on B5 yielded a Specificity [12] of 660 fold, a Kd [13] of 3700 nM and a Kd [14] of 40000 nM. It also gave a Kd [15] of 5.59 nM.

B6: X-CDP07 (designed binder)
chain: ADPKKVLDKAKDRAENVVRKLKKELEELYKEARKLDLTQEMRDRIRLAAIAARIAAFGDIFHAIMEALEEARKLKKAGLVNSQQLDELKRRLEELDEEAAQRAEKLGKEFELKLEY
B6 gave a Specificity [12] of 6.46 fold, a Kd [13] of 3.81 nM and a Kd [14] of 14.9 nM. The Kd [16] was 174 nM, the “apparent Kd (pooled screen)” value [15] was 0.59 nM and the Kd [17] was 107 nM.

B7: W-CDP03 (designed binder)
chain: DPKKVFDEAKDRAENNVRRLKQKLEELYKEARKKDLTQEEREKLKEKYKTAMAAAALAAIGDAFNALLKARKLHKNGQVNEQQLEELARRLQELAKEAFQKAKDYANEFEYKLEY
For B7, the Specificity [18] was 0.9 fold, the Kd [13] was 18.8 nM and the “apparent Kd (pooled screen)” value [14] was 8 nM. For the same binder, the Kd [16] was 55.3 nM, the Kd [19] was 400 nM and the Kd [15] was 7.43 nM. It also gave a Kd [17] of 400 nM.

B8: WINDI (designed binder)
chain: B7 chain with A9L, E46T, A53Q, A54L, I60E, A63I, F64M, Q92M, E110K
notes: also called W-ECM01; αBCLW
B8 showed a Specificity [18] of 1590 fold, a Kd [13] of 5700 nM and a Kd [14] of 1.01 nM. It also gave a Kd [15] of 1610 nM.

B9: 2-INDI (designed binder)
chain: ADPKKVLDKAKDEAENRVRELKQRLEELYKEARKLDLTQEMRQELVDKARAASLQANGDIFYAILRALAEAEKLKKAGLVNSQQLDELKRRLEELAEEARRKAEKLRDEFRLKLEY
notes: also called αBCL2
In the case of B9, the Specificity [20] is reported as 2210 fold, the Kd [13] is reported as 0.839 nM and the Kd [14] is reported as 1850 nM. For the same binder, the Kd [15] was 3500 nM.

B10: 2-CDP06 (designed binder)
chain: B9 chain with R24K, N57S, R107G
For B10, the Specificity [20] was 190 fold, the “apparent Kd (pooled screen)” value [13] was 8.9 nM and the Kd [14] was 1670 nM. It also gave a Kd [15] of 12000 nM.

B11: M-CDP02 (designed binder)
chain: ADPKKVLDKAKDQAENRVRELKQELEELYKEARKLDLTQEERRKLEESYIAAMLRAIGDIFNAIMQAKNEADKLKKAGLVNSQQLDELRRRLEELRKEASLKAEDYGREFQEKLEY
B11: binds [21]; binds [22]; binds [23]. B11: binds [24].

B12: W-CDP01 (designed binder)
chain: DPKKVFDKAKDKAENQVRYLKQRLEELYKEARKKDLTQEQRRKLKEKYLAAKLAAILAAIGDAFNALAEARELHKQGKVNKQQLDELAKRLDRLAEEAIQKAEDYAREFAYKLEY
B12: binds [25].

B13: W-CDP02 (designed binder)
chain: DPKKVLDKARDQALKRLEEMRKKLEESYKEARKKDLTQEERRKLEEKYAEAMKRAAEDIYNMIQQALKEAEKEKKAGQVNSQQLDKLREDLNNKLIAAALAAIGDAFNMAANLRT
B13: binds [25].
